Assay results published in patent US20210403591A1 (OSSIANIX, published 2021).
Read-outs that look alike come from different tables or passages of the source.

Experiments:
[1] = molecular target: T1, purified WT mTfR-1 (ELISA coat) (mouse, UniProt Q62351 89-763); experiment: ELISA, coated purified WT mTfR1
Experimental: Serial dilutions the VNAR-Fc fusion protein in blocking buffer (PBS-0.1% Tween+2.5% milk) were exposed to pre-blocked Nunc Maxisorp 96-well plates coated with the M1, M2 and M3 mutants at 1 μg/mL. After washing in PBS-0.1% Tween-20, binding of Clone C-hFc fusion was detected using an anti-human IgG (Fc specific) peroxidase antibody (Sigma-Aldrich) and the plates were developed using the chromogenic substrate TMB. Absorbance at 450 nm was recorded using an Envision multi-well reader (Perkin Elmer) and EC50s were calculated by fitting curves (non-linear regression) using GraphPad Prism®.
The binding of Clone C compared to the 8D3 antibody was tested on purified WT mTfR1 in addition to the three mutants by ELISA (FIG. 26).

[2] = molecular target: T2, purified mTfR1 mutant M3 (NGA) (mouse, UniProt Q62351 89-763); experiment: ELISA, coated purified mTfR-1
T2 construct: also called S255A
T2 sequence (Q62351 other isoform, or with tags, fused parts or gaps mutant): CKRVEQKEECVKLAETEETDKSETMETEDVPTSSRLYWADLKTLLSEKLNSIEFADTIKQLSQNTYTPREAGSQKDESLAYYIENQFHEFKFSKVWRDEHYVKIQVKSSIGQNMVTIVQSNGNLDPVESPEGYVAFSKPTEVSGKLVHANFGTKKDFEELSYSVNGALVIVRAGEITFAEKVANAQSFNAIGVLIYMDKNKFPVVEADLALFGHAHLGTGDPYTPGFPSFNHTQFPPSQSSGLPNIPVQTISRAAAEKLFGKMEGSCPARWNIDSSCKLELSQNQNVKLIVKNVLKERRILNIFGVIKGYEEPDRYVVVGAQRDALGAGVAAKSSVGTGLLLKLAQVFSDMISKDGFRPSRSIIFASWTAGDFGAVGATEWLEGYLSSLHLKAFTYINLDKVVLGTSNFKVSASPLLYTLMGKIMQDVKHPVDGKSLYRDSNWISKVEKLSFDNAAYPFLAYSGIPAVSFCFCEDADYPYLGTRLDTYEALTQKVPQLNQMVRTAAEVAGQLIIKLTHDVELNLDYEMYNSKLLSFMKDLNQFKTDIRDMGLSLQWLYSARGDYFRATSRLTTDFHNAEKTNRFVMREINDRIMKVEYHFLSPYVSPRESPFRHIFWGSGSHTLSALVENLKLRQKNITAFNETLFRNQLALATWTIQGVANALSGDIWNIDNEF

[3] = molecular target: T3, purified mTfR1 mutant M2 (NAS) (mouse, UniProt Q62351 89-763); experiment: ELISA, coated purified mTfR-1
T3 construct: also called G254A
T3 sequence (Q62351 other isoform, or with tags, fused parts or gaps mutant): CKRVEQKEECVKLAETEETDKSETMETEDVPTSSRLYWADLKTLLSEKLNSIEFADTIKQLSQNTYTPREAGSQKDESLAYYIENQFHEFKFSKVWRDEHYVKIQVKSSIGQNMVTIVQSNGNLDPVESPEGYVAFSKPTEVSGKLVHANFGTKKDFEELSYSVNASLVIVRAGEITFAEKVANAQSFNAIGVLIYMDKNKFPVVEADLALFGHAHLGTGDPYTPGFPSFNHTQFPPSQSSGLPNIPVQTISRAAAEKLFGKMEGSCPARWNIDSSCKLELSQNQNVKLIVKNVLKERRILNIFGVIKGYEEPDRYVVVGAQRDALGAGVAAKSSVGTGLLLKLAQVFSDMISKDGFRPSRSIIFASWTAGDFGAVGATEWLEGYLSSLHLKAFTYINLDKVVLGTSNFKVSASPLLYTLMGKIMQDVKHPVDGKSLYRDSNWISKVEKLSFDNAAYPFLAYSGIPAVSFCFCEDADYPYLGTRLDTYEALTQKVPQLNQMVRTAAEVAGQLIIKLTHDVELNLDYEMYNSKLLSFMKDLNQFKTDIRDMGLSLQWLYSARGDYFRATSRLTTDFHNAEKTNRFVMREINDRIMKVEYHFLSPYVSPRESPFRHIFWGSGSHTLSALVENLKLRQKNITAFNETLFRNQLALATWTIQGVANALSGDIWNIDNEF

[4] = molecular target: T4, purified mTfR1 mutant M1 (AGS) (mouse, UniProt Q62351 89-763); experiment: ELISA, coated purified mTfR-1
T4 construct: also called N253A
T4 sequence (Q62351 other isoform, or with tags, fused parts or gaps mutant): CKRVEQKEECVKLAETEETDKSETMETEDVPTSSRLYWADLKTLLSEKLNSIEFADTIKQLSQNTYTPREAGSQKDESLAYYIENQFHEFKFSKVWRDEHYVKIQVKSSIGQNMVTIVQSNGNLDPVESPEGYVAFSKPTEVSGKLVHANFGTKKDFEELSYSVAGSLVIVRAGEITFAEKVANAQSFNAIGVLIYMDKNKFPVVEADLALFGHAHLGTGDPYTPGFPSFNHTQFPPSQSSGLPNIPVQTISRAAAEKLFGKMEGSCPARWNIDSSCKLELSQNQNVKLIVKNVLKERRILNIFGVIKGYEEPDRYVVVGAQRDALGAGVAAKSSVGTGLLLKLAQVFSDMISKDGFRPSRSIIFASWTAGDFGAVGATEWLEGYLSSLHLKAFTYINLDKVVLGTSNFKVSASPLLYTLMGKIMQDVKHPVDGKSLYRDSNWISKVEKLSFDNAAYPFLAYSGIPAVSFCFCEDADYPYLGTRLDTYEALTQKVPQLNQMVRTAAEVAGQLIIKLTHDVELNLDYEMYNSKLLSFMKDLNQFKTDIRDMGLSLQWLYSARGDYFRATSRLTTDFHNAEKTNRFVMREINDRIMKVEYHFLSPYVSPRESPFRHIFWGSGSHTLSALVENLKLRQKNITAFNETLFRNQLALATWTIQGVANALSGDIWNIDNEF

[5] = molecular target: T3, purified mTfR1 mutant M2 (NAS); experiment: ELISA, plate coated with purified mTfR-1 mutant M2 (NAS), serial dilution of the binder; y axis Norm. Vmax OD at 650nm
[6] = molecular target: T1, purified WT mTfR-1 (ELISA coat); experiment: ELISA, coated purified mTfR-1
[7] = molecular target: T2, purified mTfR1 mutant M3 (NGA); experiment: ELISA, coated purified mTfR-1; remark: listed apart in the source
[8] = molecular target: T3, purified mTfR1 mutant M2 (NAS); experiment: ELISA, coated purified mTfR-1; remark: listed apart in the source
[9] = molecular target: T4, purified mTfR1 mutant M1 (AGS); experiment: ELISA, coated purified mTfR-1; remark: listed apart in the source

T1 sequence (Q62351 89-763): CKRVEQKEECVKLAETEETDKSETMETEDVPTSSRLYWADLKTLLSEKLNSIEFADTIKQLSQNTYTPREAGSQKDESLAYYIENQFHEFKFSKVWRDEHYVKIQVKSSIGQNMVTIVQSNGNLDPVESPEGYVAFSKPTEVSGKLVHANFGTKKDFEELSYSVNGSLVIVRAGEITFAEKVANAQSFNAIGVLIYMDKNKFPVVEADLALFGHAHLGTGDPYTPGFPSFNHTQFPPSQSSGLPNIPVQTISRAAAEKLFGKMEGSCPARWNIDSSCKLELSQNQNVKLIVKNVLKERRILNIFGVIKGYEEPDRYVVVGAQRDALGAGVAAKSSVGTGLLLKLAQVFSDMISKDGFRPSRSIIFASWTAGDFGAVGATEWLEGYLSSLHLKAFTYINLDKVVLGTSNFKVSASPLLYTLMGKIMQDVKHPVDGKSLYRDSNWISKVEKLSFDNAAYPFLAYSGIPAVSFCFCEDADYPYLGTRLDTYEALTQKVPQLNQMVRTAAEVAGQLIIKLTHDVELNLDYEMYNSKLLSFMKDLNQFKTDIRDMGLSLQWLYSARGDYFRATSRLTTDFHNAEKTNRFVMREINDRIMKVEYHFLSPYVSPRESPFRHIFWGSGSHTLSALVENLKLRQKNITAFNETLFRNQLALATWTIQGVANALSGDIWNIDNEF

EC50 [1] [nM]	EC50 [2] [nM]	EC50 [3] [nM]	EC50 [4] [nM]	EC50 (read off the curve) [5] [nM]	EC50 [6] [nM]	EC50 [7] [nM]	EC50 [8] [nM]	EC50 [9] [nM]	Binder
65.4									Clone C VNAR-hFc fusion (Fc fusion, not shown: a dimerising Fc or GST, bivalent VNAR-Fc; also called Clone C-hFc) ARVDQTPQTITKETGESLTINCVLRDSNCALSSTYWYRKKSGSTNEENISKGGRYVETVNSGSKSFSLRINDLTVEDSGTYRCNVVQYPSYNNYFWCDVYGDGTAVTVN
	0.79	13	1.1						Clone C variant 13 VNAR-hFc (Fc fusion, not shown: a dimerising Fc or GST, also called Clone C v13; Clone C var; 13) ARVDQTPQTITKETGESLTINCVLRDSNCALSSTYWYRKKSGSTNEENISKGGRYVETVNSGSKSFSLRINDLTVEDSGTYRCNVVQYPQQDNYFWCDVYGDGTAVTVN
	2.6	200	5.9						Clone C variant 18 VNAR-hFc (Fc fusion, not shown: a dimerising Fc or GST, also called Clone C v18; Clone C var; 18) ARVDQTPQTITKETGESLTINCVLRDSNCALSSTYWYRKKSGSTNEENISKGGRYVETVNSGSKSFSLRINDLTVEDSGTYRCNVVQYPQYPNYFWCDVYGDGTAVTVN
11.1				~4	0.49	0.51	0.33	0.35	8D3 antibody (anti-mouse TfR-1 control; 8D3-hFc formatted antibody) (antibody, V domains shown) VH: EVQLVESGGGLVQPGNSLTLSCVASGFTFSNYGMHWIRQAPKKGLEWIAMIYYDSSKMNYADTVKGRFTISRDNSKNTLYLEMNSLRSEDTAMYYCAVPTSHYVVDVWGQGVSVTVSS VL: DIQMTQSPASLSASLEEIVTITCQASQDIGNWLAWYQQKPGKSPQLLIYGATSLADGVPSRFSGSRSGTQFSLKISRVQVEDIGIYYCLQAYNTPWTFGGGTKLELK
